The experiment deals with recombinant flagellin type B of P. aeruginosa (P. aeruginosa) (UniProt P72151).

Drawing on publication PMC3161968, this text covers inhibition of flagellin-induced IL-8 production by HEK/TLR5 cells (30 ng/ml P. aeruginosa flagellin; the pair whose signalling is blocked is m6 with m7); AprA acts by degrading flagellin for 1 substance.

UniProt P72151, sequence (P72151 whole entry): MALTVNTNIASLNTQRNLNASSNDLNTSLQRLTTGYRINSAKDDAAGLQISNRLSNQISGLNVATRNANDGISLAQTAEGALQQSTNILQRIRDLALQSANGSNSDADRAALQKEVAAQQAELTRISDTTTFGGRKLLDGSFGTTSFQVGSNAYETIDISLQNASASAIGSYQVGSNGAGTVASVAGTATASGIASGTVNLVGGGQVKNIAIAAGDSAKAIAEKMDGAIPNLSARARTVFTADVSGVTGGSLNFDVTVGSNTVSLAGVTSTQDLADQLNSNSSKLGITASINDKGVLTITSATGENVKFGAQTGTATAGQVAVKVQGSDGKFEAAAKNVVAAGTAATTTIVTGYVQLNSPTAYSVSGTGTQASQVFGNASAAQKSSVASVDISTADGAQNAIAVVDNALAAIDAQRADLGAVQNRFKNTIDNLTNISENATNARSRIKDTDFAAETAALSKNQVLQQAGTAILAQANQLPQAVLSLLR

As for “recombinant His-AprA (alkaline protease of P. aeruginosa) (from UniProt Q03023 10-479) (enzyme)”, the inhibition of flagellin-induced IL-8 production by HEK/TLR5 cells (30 ng/ml P. aeruginosa flagellin; the pair whose signalling is blocked is m6 with m7); AprA acts by degrading flagellin was 30 ng/mL.
